Data set [1] can be described thus: Pharmacokinetic study in mice: plasma clearance of 125I-labeled protein, SEC of plasma. Format: in vivo. As to the method:
The pharmacokinetics of DX-890 and the PEGylated DX-890 compounds were measured by iodinating the proteins on available tyrosine residues and measuring their clearance in mice.
Samples were radio-iodinated by the indirect method using the IODO-GEN reagent (method from Pierce Chem. Co., and first described by Chizzonite [J Immunol 147, 1548-1556, 1991; J. Immunol 148, 3117-3124, 1992]). Samples were incubated with the ^125I-NaI solution for 9 min at which time tyrosine (10 mg/mL, a saturated solution) was added to quench the reaction. After about 15 min a 5 μl aliquot was removed as a standard for counting.
For each labeling reaction, the ^125I-labeled material (approx. 0.6 mL) was purified using a single 5 mL D-salt 1800 polyacrylamide column (Pierce Chem. Co.). […] Samples were applied in and columns were eluted with a series of 0.3 mL aliquots. Recovery of applied activity in all protein fractions was >75% and the total recovery of applied activity was >90%. The fractions containing peak levels of labeled protein were pooled for animal injections. To prepare the injectate, the pool was diluted with Tris buffer (pH 7.5) so that the 100 μL injection volume contained about 10 μg of labeled material.
Time of injection and time of sampling were recorded. At sacrifice, samples of 0.5 ml were collected into anticoagulant (0.02 ml EDTA). Cells were spun down and separated from plasma, and cells were stored at −20° C. Plasma was divided into two aliquots, one frozen and one stored at 4° C. for immediate analysis. Analysis included gamma counting of all samples. In addition, analysis was performed for two plasma samples (N=2) at each time point, i.e., 0, and 30 minutes, for ^125I-DX-890, and 0, 30 minutes, and 24 h for the ^125I-DX-890-PEG conjugates. A SEC-HPLC Superose-12 column was used with an in-line radiation detector (FIGS. 4-7).
The solid curves through the sets of data plotted in FIG. 3 are four-parameter, least-squares fits of Equation 3 to the data. Table 3 presents the values for % α Phase, α Phase Half-life, % β Phase, and β Phase Half-life extracted from the least squares fits to the in vivo clearance data set obtained for each of the four compounds tested in mice.

The nature of data set [2]: Pharmacokinetic study in rabbits: plasma clearance of 125I-labeled protein, SEC of plasma. The class given is in vivo, New Zealand White rabbits. As to the method: Pharmacokinetic properties of DX-890 and PEG-30-DX-890 (conjugation at pH 7.4) were measured by iodinating the proteins and measuring clearance of the radiolabel from circulation in rabbits. The two DX-890 preparations were iodinated with iodine-125 using the iodogen method. After radiolabeling, the two labeled protein preparations were purified from unbound label by size exclusion chromatography (SEC). Fractions from the SEC column having the highest radioactivity were pooled. The purified, radiolabeled preparations were characterized for specific activity by gamma counting and for purity by SEC using a Superose-12 column equipped with an in-line radiation detector.
New Zealand White rabbits (ca. 2.5 Kg) were used for clearance measurements, with one animal used for each of the two labeled protein preparations. The radiolabeled preparation was injected into the animal via an ear vein. One blood sample was collected per animal per time point with early time points at approximately 0, 2.5, 5, 7, 15, 30, 60, and 90 minutes post injection and later time points at 4, 8, 16, 24, 30, 48, 72, 96, 144, 168, and 192 hours post injection. Samples (about 0.5 mL) were collected into anticoagulant (EDTA) containing tubes. Cells were separated from the plasma fraction by centrifugation. The plasma fraction was divided into two aliquots. One plasma aliquot was stored at −70° C. and the other aliquot was kept at 4° C. for immediate analyse's. Sample analyses included radiation counting for clearance rate determinations and SEC chromatography to test for changes in the size distribution of radiolabeled material in vivo (stability).

Data set [3] is described as follows: Allometric extrapolation of β-phase half-life from mice and rabbits to humans. The conditions noted are these: 70 Kg human, linear extrapolation from mice and rabbits. From the text:
Data on in vivo pharmacokinetic parameters obtained from small laboratory mammals (e.g. rodents, dogs, and monkeys) can be extrapolated to humans by interspecies scaling (summarized by Mahmood and Balian, Life Sciences 7: 579-585, 1996 and Clin Pharmacokinet 36:1-11, 1999). A simple allometric approach describes the relationship between bodyweight (W) and a pharmacokinetic parameter of interest (Y) in terms of the power function: Y=aW^b (Equation 4) where a and b are the empirically determined coefficient and exponent of the allometric equation, respectively. […] Further, of the three most important pharmacokinetic parameters (total body clearance, volume of distribution, and t1/2β) typically measured, t1/2β is least well predicted by Equation 4. With these caveats in mind, data presented in Tables 2 and 4 can be used to provide crude estimates of expected t1/2β in humans.
FIG. 10 presents data from Tables 2 and 4 plotted as log [Beta Phase Half-Live] vs log [Body Mass] for unmodified DX-890 (triangles) and mono-PEG30-DX-890 (circles). Linear extrapolations of the experimental data for mice (25 gm) and rabbits (2.5 Kg) to humans (70 Kg) are shown by the solid crosses in the figure. The extrapolated values for β-phase half-lives in humans are ˜5 hours for unmodified DX-890 and ˜14 days for mono-PEG30-DX-890. […]

The target of data set [4] is T1, human neutrophil elastase (HNE) (Homo sapiens, UniProt P08246).
T1 sequence (P08246 30-267): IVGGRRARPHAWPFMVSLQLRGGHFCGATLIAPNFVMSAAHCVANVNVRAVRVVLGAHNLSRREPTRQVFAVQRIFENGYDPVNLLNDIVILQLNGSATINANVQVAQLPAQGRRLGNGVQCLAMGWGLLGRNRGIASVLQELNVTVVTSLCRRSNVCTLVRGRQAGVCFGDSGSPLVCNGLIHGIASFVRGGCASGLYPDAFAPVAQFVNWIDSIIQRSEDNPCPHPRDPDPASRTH
The conditions noted are these: description statement; cited from earlier work.

Where [5] appears, read: tail vein injection, bi-exponential fit.
Where [6] appears, read: ear vein injection, bi-exponential fit.

For orientation: Ki means a measure of affinity in units of concentration, obtained from inhibition or displacement. In the case of “DX-890: 56 amino acid Kunitz domain polypeptide derived from ITI-D2, inhibitor of human neutrophil elastase, produced in Pichia pastoris (EACNLPIVRGPCIAFFPRWAFDAVKGKCVLFPYGGCQGNGNKFYSEKECREYCGVP)”, in data set [1], the “percentage cleared in the β phase” value is “about 15%”, the “α phase half life” value is listed as “about 1 min” and the “β phase half life” value is “about 1 hr”. Besides, in data set [1] (30 minutes after injection), the “material remaining in circulation” value was “less than 20%”. Also, in data set [1] (Table 4 summary), the α half life worked out at 1 min and the β half life was determined as 1.32 h. In data set [1] (setting [5]), the “α Phase Clearance (%)” value is on record as 84%, the “α Phase Half-life” value stood at 1.0 min, the “β Phase Clearance (%)” value amounted to 16% and the “β Phase Half-life (hr)” value was determined as 1.3 h. Moreover, the “β Phase Half-life (min)” value in data set [1] (setting [5]) is 79 min. Further, in data set [2], the “in vivo stability, SEC analysis of plasma” value was “relatively rapid association of label with higher molecular weight plasma components”. In data set [2] (setting [6]), the “% α” value turned out to be 75%, the “% β” value was 25%, the T1/2α is 24 s and the T1/2β is 2.75 h. The “extrapolated β-phase half-life in humans” value in data set [3] is ~5 h. For the same substance, the Ki in data set [4] was 4 pM.
